For 16 molecules, relative affinity results are on record in US20180086804A1 (COMMISSARIAT A L ENERGIE ATOMIQUE ET AUX ENERGIES …, published 2018).

Where two headings read alike, the source gives them in different places. No end group written: not given here.

Assay [1] addresses T1, HLA-DP401 (HLA-DPB1*04:01) (human, UniProt P20036 29-222).
T1 construct: mature; purified from homozygous EBV-transformed lymphoblastoid cells with antibody B7/21
Briefly: competition ELISA vs biotin-Oxy 271-287. A general note: In an ELISA, binding on a coated surface is turned into a signal by an enzyme label.

Assay [2] deals with T2, HLA-DP402 (HLA-DPB1*04:02) (human, UniProt P20036 29-222).
T2 construct: mature; purified from homozygous EBV-transformed lymphoblastoid cells with antibody B7/21
Briefly: competition ELISA vs biotin-Oxy 271-287.

Assay [3] deals with T3, HLA-DRB4 (HLA-DRB4*01:01) (human).
T3 construct: mature; purified from homozygous EBV-transformed lymphoblastoid cells with antibody L243
Briefly: competition ELISA vs biotin-E2/E168.

Assay [4] deals with T4, HLA-DR11 (HLA-DRB1*11:01) (human).
T4 construct: mature; purified from homozygous EBV-transformed lymphoblastoid cells with antibody L243
Briefly: competition ELISA vs biotin-HA 306-318.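 Note: HLA and competitor incubated 24 to 72 h, maximal signal taken from wells lacking competitor, background from wells lacking HLA molecule.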

The target of assay [5] is T5, HLA-DR7 (HLA-DRB1*07:01) (human).
T5 construct: mature; purified from homozygous EBV-transformed lymphoblastoid cells with antibody L243
Briefly: competition ELISA vs biotin-YKL.

Assay [6] has as its target T6, HLA-DR13 (HLA-DRB1*13:01) (human).
T6 construct: mature; purified from homozygous EBV-transformed lymphoblastoid cells with antibody L243
Briefly: competition ELISA vs biotin-B1 21-36.

For assay [7], the target named is T4, HLA-DR11 (HLA-DRB1*11:01). Briefly: competition ELISA vs biotin-HA 306-318.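 Note: HLA and competitor incubated 24 to 72 h, maximal signal taken from wells lacking competitor, background from wells lacking HLA molecule.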 This is another data set of the same source.
For assay [8], the target named is T7, HLA-DR4 (HLA-DRB1*04:01) (human).
T7 construct: mature; purified from homozygous EBV-transformed lymphoblastoid cells with antibody L243
Briefly: competition ELISA vs biotin-HA 306-318.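 Note: HLA and competitor incubated 24 to 72 h, maximal signal taken from wells lacking competitor, background from wells lacking HLA molecule.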

The target in assay [9] is T8, HLA-DR1 (HLA-DRB1*01:01) (human).
T8 construct: mature; class II HLA molecule purified from homozygous EBV-transformed lymphoblastoid cells with antibody L243
Briefly: competition ELISA vs biotin-HA 306-318.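 Note: HLA and competitor incubated 24 to 72 h, maximal signal taken from wells lacking competitor, background from wells lacking HLA molecule.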

Assay [10] has as its target T9, HLA-DRB5 (HLA-DRB5*01:01) (human).
T9 construct: mature; purified from homozygous EBV-transformed lymphoblastoid cells with antibody L243
Briefly: competition ELISA vs biotin-HA 306-318.

Assay [11] deals with T6, HLA-DR13 (HLA-DRB1*13:01). Briefly: competition ELISA vs biotin-B1 21-36. The source holds these as a separate data set.
In assay [12] the target is T10, HLA-DR15 (HLA-DRB1*15:01) (human).
T10 construct: mature; purified from homozygous EBV-transformed lymphoblastoid cells with antibody L243
Briefly: competition ELISA vs biotin-A3 152-166.

The target of assay [13] is T11, HLA-DR3 (HLA-DRB1*03:01) (human).
T11 construct: mature; purified from homozygous EBV-transformed lymphoblastoid cells with antibody L243
Briefly: competition ELISA vs biotin-MT 2-16.

Assay [14] has as its target T7, HLA-DR4 (HLA-DRB1*04:01). Briefly: competition ELISA vs biotin-HA 306-318. The source holds these as a separate data set.
Assay [15] addresses T8, HLA-DR1 (HLA-DRB1*01:01). Briefly: competition ELISA vs biotin-HA 306-318. The source holds these as a separate data set.
The target of assay [16] is T9, HLA-DRB5 (HLA-DRB5*01:01). Briefly: competition ELISA vs biotin-HA 306-318. This is another data set of the same source.
In assay [17] the target is T11, HLA-DR3 (HLA-DRB1*03:01). Briefly: competition ELISA vs biotin-MT 2-16. The source holds these as a separate data set.
Assay [18] deals with T10, HLA-DR15 (HLA-DRB1*15:01). Briefly: competition ELISA vs biotin-A3 152-166. The source holds these as a separate data set.
Assay [19] deals with T5, HLA-DR7 (HLA-DRB1*07:01). Briefly: competition ELISA vs biotin-YKL. This is another data set of the same source.
Assay [20] concerns the target T11, HLA-DR3 (HLA-DRB1*03:01). Briefly: competition ELISA vs biotin-MT 2-16. The source holds these as a separate data set.
In assay [21] the target is T4, HLA-DR11 (HLA-DRB1*11:01). Briefly: competition ELISA vs biotin-HA 306-318. This is another data set of the same source.
Assay [22] addresses T7, HLA-DR4 (HLA-DRB1*04:01). Briefly: competition ELISA vs biotin-HA 306-318. This is another data set of the same source.
In assay [23] the target is T8, HLA-DR1 (HLA-DRB1*01:01). Briefly: competition ELISA vs biotin-HA 306-318. This is another data set of the same source.
Assay [24] addresses T9, HLA-DRB5 (HLA-DRB5*01:01). Briefly: competition ELISA vs biotin-HA 306-318. The source holds these as a separate data set.
The target of assay [25] is T10, HLA-DR15 (HLA-DRB1*15:01). Briefly: competition ELISA vs biotin-A3 152-166. This is another data set of the same source.
In assay [26] the target is T5, HLA-DR7 (HLA-DRB1*07:01). Briefly: competition ELISA vs biotin-YKL. This is another data set of the same source.
For assay [27], the target named is T3, HLA-DRB4 (HLA-DRB4*01:01). Briefly: competition ELISA vs biotin-E2/E168. The source holds these as a separate data set.
In assay [28] the target is T12, HLA-DRB3 (HLA-DRB3*01:01) (human).
T12 construct: mature; purified from homozygous EBV-transformed lymphoblastoid cells with antibody L243
Briefly: competition ELISA vs biotin-LOL 191-210.

For assay [29], the target named is T1, HLA-DP401 (HLA-DPB1*04:01). Briefly: competition ELISA vs biotin-Oxy 271-287. The source holds these as a separate data set.
The target of assay [30] is T2, HLA-DP402 (HLA-DPB1*04:02). Briefly: competition ELISA vs biotin-Oxy 271-287. This is another data set of the same source.
The target of assay [31] is T6, HLA-DR13 (HLA-DRB1*13:01). Briefly: competition ELISA vs biotin-B1 21-36. This is another data set of the same source.

KKLPKPLEKVPMLVP-NH2 [CCNB1 77-91]: the relative affinity in [1] was 212; in assay [2] it was 474; in assay [3], 75; in [4], 1630.

For the molecule LPVMQHLAKNVVMVN-NH2 [CCNB1 377-391], the relative affinity turned out to be 13 in the assay with HLA-DR7 (HLA-DRB1*07:01) [5]; 2 in assay [6]; 3 in assay [7]; 373 with HLA-DR4 (HLA-DRB1*04:01) [8]; 894 in the assay with HLA-DR1 (HLA-DRB1*01:01) [9]; 4080 in assay [10].

As for H-KNVVMVNQGLTKHMT-NH2 (not fully specified) [CCNB1 385-399], the relative affinity turned out to be 37 in [11]; 116 in assay [1]; 2 in [2]; 0.02 in assay [12]; 228 in the assay with HLA-DR3 (HLA-DRB1*03:01) [13]; 766 in assay [4]. Further, the relative affinity in the assay with HLA-DR4 (HLA-DRB1*04:01) [14] was determined as 986; with HLA-DR1 (HLA-DRB1*01:01) [15], 4500; in [16], 52.

As for LHFLRRASKIGEVDV-NH2 [CCNB1 303-317], the relative affinity came to 849 with HLA-DR7 (HLA-DRB1*07:01) [5]; 1 in assay [6]; 3 in the assay with HLA-DR3 (HLA-DRB1*03:01) [17]; 17 in assay [18]; 1 in assay [7]; 1390 with HLA-DR4 (HLA-DRB1*04:01) [8]. Besides, the relative affinity with HLA-DR1 (HLA-DRB1*01:01) [9] came out at 495; in [10], 1330.

As to SKYEEMYPPEIGDFA-NH2 [CCNB1 256-270], the relative affinity in the assay with HLA-DR7 (HLA-DRB1*07:01) [19] stood at 61; in [1] it was 894; in assay [12], 153; in assay [4], 1370; with HLA-DR4 (HLA-DRB1*04:01) [14], 456; with HLA-DR1 (HLA-DRB1*01:01) [15], 3. This molecule also had a relative affinity in [16] of 603.

On to NCVPKKMLQLVGVTA-NH2 [CCNB1 237-251], for which the relative affinity in assay [12] came to 65; in assay [3] it was 1400; in [4], 87; with HLA-DR1 (HLA-DRB1*01:01) [15] it was 4.

Regarding MELTMLDYDMVHFPP-NH2 [CCNB1 327-341], the relative affinity stood at 2 in assay [1]; 47 in assay [2]; 10 in assay [12]; 139 in [3]; 32 with HLA-DR3 (HLA-DRB1*03:01) [13]; 216 in assay [4]. Also, the relative affinity is 22 in the assay with HLA-DR4 (HLA-DRB1*04:01) [14] and 418 with HLA-DR1 (HLA-DRB1*01:01) [15].

As for MALRVTRNSKINAEN-NH2 [CCNB1 1-15], the relative affinity with HLA-DR7 (HLA-DRB1*07:01) [5] stood at 2; in [6] it was 58; in assay [18], 5; in assay [7] it was 22; with HLA-DR4 (HLA-DRB1*04:01) [8], 46; with HLA-DR1 (HLA-DRB1*01:01) [9] it was 100. In assay [10], this molecule showed a relative affinity of 374.

With VDVEQHTLAKYLMEL-NH2 [CCNB1 315-329], the relative affinity stood at 6 with HLA-DR7 (HLA-DRB1*07:01) [5]; 211 in assay [6]; 7 in [18]; 632 in assay [7]; 2450 with HLA-DR1 (HLA-DRB1*01:01) [9]; 224 in [10].

Take AKINMAGAKRVPTAP-NH2 [CCNB1 17-31]: the relative affinity with HLA-DR7 (HLA-DRB1*07:01) [5] amounted to 3; in assay [6], 21; with HLA-DR3 (HLA-DRB1*03:01) [17], 833; in [18] it was 120; in [7] it was 2; with HLA-DR1 (HLA-DRB1*01:01) [9], 5. This molecule also displayed a relative affinity in assay [10] of 11.

With PTLQHYLSYTEESLL-NH2 [CCNB1 363-377], the relative affinity stood at 1 with HLA-DR3 (HLA-DRB1*03:01) [20]; 45 in assay [21]; 76 with HLA-DR4 (HLA-DRB1*04:01) [22]; 28 with HLA-DR1 (HLA-DRB1*01:01) [23]; 24 in assay [24]; 1 in assay [25]. Moreover, the relative affinity turned out to be 1 with HLA-DR7 (HLA-DRB1*07:01) [26]; 5 in assay [27]; 11 in assay [28]; 22 in [29]; 50 in assay [30].

SEYVKDIYAYLRQLE-NH2 [CCNB1 168-182]: the relative affinity with HLA-DR3 (HLA-DRB1*03:01) [20] was 97; in [21], 3; in the assay with HLA-DR1 (HLA-DRB1*01:01) [23] it was 22; in assay [24], 3; in assay [25], 12; with HLA-DR7 (HLA-DRB1*07:01) [26], 346. The relative affinity in assay [28] amounted to 30; in assay [31], 12; in assay [30], 127.

Regarding NTYTKHQIRQMEMKI-NH2 [CCNB1 275-289], the relative affinity in [11] turned out to be 158; with HLA-DR7 (HLA-DRB1*07:01) [19], 43; in [12], 85; in assay [3], 80; in assay [4] it was 4; in the assay with HLA-DR4 (HLA-DRB1*04:01) [14], 456. In assay [16], the relative affinity was 50.

In the case of LALKILDNGEWTPTL-NH2 [CCNB1 351-365], the relative affinity amounted to 624 with HLA-DR7 (HLA-DRB1*07:01) [19]; 510 in [2]; 52 in assay [12]; 2330 in assay [4]; 1000 with HLA-DR4 (HLA-DRB1*04:01) [14]; 648 in the assay with HLA-DR1 (HLA-DRB1*01:01) [15]. In [16], the relative affinity was 3060.

As to HFPPSQIAAGAFCLA-NH2 [CCNB1 338-352], the relative affinity with HLA-DR7 (HLA-DRB1*07:01) [19] was 1400; in [2], 188; in assay [12] it was 257; with HLA-DR1 (HLA-DRB1*01:01) [15], 598.

On to PMLVPVPVSEPVPEP-NH2 [CCNB1 87-101], for which the relative affinity was 231 in the assay with HLA-DR7 (HLA-DRB1*07:01) [19]; 134 in [12]; 748 in [3]; 96 with HLA-DR4 (HLA-DRB1*04:01) [14]; 1500 in the assay with HLA-DR1 (HLA-DRB1*01:01) [15].
